{"source": "patent US20040087497A1", "about": "(Bristol-Myers Squibb, published 2004)", "test_in_all_cases": "cell-based or functional assay", "key": {"human CD10 [1]": {"target": "T1, human CD10 (human, UniProt P08473 2-750)", "T1 sequence (P08473 2-750)": "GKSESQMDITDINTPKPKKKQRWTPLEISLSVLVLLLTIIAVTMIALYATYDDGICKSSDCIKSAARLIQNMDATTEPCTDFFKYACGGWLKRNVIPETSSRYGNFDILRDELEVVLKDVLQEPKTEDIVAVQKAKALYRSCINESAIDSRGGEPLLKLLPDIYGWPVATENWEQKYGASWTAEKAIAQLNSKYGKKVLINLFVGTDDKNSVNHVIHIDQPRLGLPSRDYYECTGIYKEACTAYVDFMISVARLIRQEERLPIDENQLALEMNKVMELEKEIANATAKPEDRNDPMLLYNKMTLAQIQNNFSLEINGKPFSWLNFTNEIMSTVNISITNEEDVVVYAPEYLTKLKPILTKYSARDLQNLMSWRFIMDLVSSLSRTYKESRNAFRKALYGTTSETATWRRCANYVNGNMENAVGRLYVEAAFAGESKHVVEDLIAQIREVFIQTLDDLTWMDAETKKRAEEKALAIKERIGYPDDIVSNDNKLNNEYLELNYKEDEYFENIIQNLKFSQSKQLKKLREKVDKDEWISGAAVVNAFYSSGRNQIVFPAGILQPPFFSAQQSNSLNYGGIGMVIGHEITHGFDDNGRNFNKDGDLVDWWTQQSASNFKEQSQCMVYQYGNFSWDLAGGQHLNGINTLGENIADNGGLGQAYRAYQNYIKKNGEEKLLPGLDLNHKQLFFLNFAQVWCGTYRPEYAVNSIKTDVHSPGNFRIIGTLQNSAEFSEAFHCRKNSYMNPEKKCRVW"}, "human CD10 [2]": {"target": "T1, human CD10", "remark": "listed apart in the source"}, "human CD10 [3]": {"target": "T1, human CD10", "remark": "listed apart in the source"}, "[4]": {"target": "Prostate Specific Antigen (PSA) (human, UniProt P07288 25-261)", "sequence (P07288 25-261 limits assumed)": "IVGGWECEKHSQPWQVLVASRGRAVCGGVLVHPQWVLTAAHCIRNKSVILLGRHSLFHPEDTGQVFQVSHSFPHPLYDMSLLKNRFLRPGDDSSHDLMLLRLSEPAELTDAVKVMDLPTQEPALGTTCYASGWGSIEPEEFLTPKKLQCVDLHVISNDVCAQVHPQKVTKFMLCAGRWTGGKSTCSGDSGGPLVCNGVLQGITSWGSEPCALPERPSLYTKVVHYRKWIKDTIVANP"}, "human CD10 [5]": {"target": "T1, human CD10", "remark": "listed apart in the source"}, "human CD10 [6]": {"target": "T1, human CD10", "remark": "listed apart in the source"}, "human CD10 [7]": {"target": "T1, human CD10", "remark": "listed apart in the source"}, "human CD10 [8]": {"target": "T1, human CD10", "remark": "listed apart in the source"}}, "note": "Starred links: 1 amine or outer side, 2 acyl side, 3 side chain; linkers in the order of their positions; H or OH if unused. Non-standard residues stand in square brackets, D forms with d. Suc = O=C(CCC(=O)[*:2])[*:1]; Dox = doxorubicin; βAla = NCCC(=O)O"}
{"binder": "Suc-[βAla]IAL-Dox", "note": "[Suc-βAla-Ile-Ala-Leu-Dox]", "values": [{"measurement": "IC50, proliferation of HL60 cells with supernatant of compound-treated CHO Clone 8 (CD10 Pos.)", "setting": "human CD10 [1]", "value": 2.7, "unit": "µM"}, {"measurement": "IC50, proliferation of HL60 cells with supernatant of compound-treated CHO Clone DB4 (CD10 Pos.)", "setting": "human CD10 [1]", "value": 5.4, "unit": "µM"}, {"measurement": "IC50 on LNCaP cells (CD10pos) with 0 nM phosphoramidon", "setting": "human CD10 [2]", "value": 0.24, "unit": "µM"}, {"measurement": "IC50 on LNCaP cells (CD10pos) with 30 nM phosphoramidon", "setting": "human CD10 [2]", "value": 1.3, "unit": "µM"}, {"measurement": "IC50 on LNCaP cells (CD10pos) with 100 nM phosphoramidon", "setting": "human CD10 [2]", "value": 3.3, "unit": "µM"}, {"measurement": "IC50 on LNCaP cells (CD10pos) with 300 nM phosphoramidon", "setting": "human CD10 [2]", "value": 7.7, "unit": "µM"}, {"measurement": "IC50 on LNCaP cells (CD10pos) with 1000 nM phosphoramidon", "setting": "human CD10 [2]", "value": 11.3, "unit": "µM"}, {"measurement": "IC50 on LNCaP cells (CD10pos) with 3000 nM phosphoramidon", "setting": "human CD10 [2]", "value": 15.4, "unit": "µM"}, {"measurement": "IC50 on Ramos cells (CD10pos) with 0 nM phosphoramidon", "setting": "human CD10 [2]", "value": 0.51, "unit": "µM"}, {"measurement": "IC50 on Ramos cells (CD10pos) with 30 nM phosphoramidon", "setting": "human CD10 [2]", "value": 2.1, "unit": "µM"}, {"measurement": "IC50 on Ramos cells (CD10pos) with 100 nM phosphoramidon", "setting": "human CD10 [2]", "value": 5.3, "unit": "µM"}, {"measurement": "IC50 on Ramos cells (CD10pos) with 300 nM phosphoramidon", "setting": "human CD10 [2]", "value": 8.1, "unit": "µM"}, {"measurement": "IC50 on Ramos cells (CD10pos) with 1000 nM phosphoramidon", "setting": "human CD10 [2]", "value": 9.7, "unit": "µM"}, {"measurement": "IC50 on Ramos cells (CD10pos) with 3000 nM phosphoramidon", "setting": "human CD10 [2]", "value": 10.5, "unit": "µM"}, {"measurement": "IC50, 3H-thymidine proliferation, LnCAP cells (CD10+ PSA+)", "setting": "human CD10 [3]", "value": 150, "unit": "µM"}, {"measurement": "IC50, 3H-thymidine proliferation, 22RV1 cells (CD10- PSA+)", "setting": "[4]", "value": 10800, "unit": "µM"}, {"measurement": "IC50, 3H thymidine proliferation, CD10 transfected CHO Clone #3", "setting": "human CD10 [5]", "value": 19000, "unit": "µM"}, {"measurement": "IC50, 3H thymidine proliferation, CD10 transfected CHO Clone #5", "setting": "human CD10 [5]", "value": 19000, "unit": "µM"}, {"measurement": "IC50, 3H thymidine proliferation, CD10 transfected CHO Clone #7", "setting": "human CD10 [5]", "value": 11000, "unit": "µM"}, {"measurement": "IC50, 3H thymidine proliferation, CD10 transfected CHO Clone #8", "setting": "human CD10 [5]", "value": 8400, "unit": "µM"}, {"measurement": "IC50, 3H thymidine proliferation, CD10 transfected CHO clone DB4", "setting": "human CD10 [5]", "value": 4200, "unit": "µM"}, {"measurement": "IC50, 3H thymidine proliferation, LnCap cells (CD10 positive)", "setting": "human CD10 [5]", "value": 390, "unit": "µM"}, {"measurement": "IC50, 3H thymidine proliferation, Ramos cells", "setting": "human CD10 [5]", "value": 440, "unit": "µM"}, {"measurement": "IC50 on LNCaP cells (CD10pos) with DL-Thiorphan 0", "setting": "human CD10 [6]", "value": 0.51, "unit": "µM"}, {"measurement": "IC50 on LNCaP cells (CD10pos) with DL-Thiorphan 30", "setting": "human CD10 [6]", "value": 2.1, "unit": "µM"}, {"measurement": "IC50 on LNCaP cells (CD10pos) with DL-Thiorphan 100", "setting": "human CD10 [6]", "value": 5.3, "unit": "µM"}, {"measurement": "IC50 on LNCaP cells (CD10pos) with DL-Thiorphan 300", "setting": "human CD10 [6]", "value": 8.1, "unit": "µM"}, {"measurement": "IC50 on LNCaP cells (CD10pos) with DL-Thiorphan 1000", "setting": "human CD10 [6]", "value": 9.7, "unit": "µM"}, {"measurement": "IC50 on LNCaP cells (CD10pos) with DL-Thiorphan 3000", "setting": "human CD10 [6]", "value": 10.5, "unit": "µM"}, {"measurement": "IC50 on Ramos cells (CD10pos) with DL-Thiorphan 0", "setting": "human CD10 [6]", "value": 0.25, "unit": "µM"}, {"measurement": "IC50 on Ramos cells (CD10pos) with DL-Thiorphan 30", "setting": "human CD10 [6]", "value": 0.27, "unit": "µM"}, {"measurement": "IC50 on Ramos cells (CD10pos) with DL-Thiorphan 100", "setting": "human CD10 [6]", "value": 0.31, "unit": "µM"}, {"measurement": "IC50 on Ramos cells (CD10pos) with DL-Thiorphan 300", "setting": "human CD10 [6]", "value": 0.28, "unit": "µM"}, {"measurement": "IC50 on Ramos cells (CD10pos) with DL-Thiorphan 1000", "setting": "human CD10 [6]", "value": 0.44, "unit": "µM"}, {"measurement": "IC50 on Ramos cells (CD10pos) with DL-Thiorphan 3000", "setting": "human CD10 [6]", "value": 1.1, "unit": "µM"}, {"measurement": "Ratio of IC50 Suc-β-Ala-Ile-Ala-Leu/Dox, CD10 transfected CHO Clone #7", "setting": "human CD10 [7]", "value": 17, "unit": "ratio"}, {"measurement": "Ratio of IC50 Suc-β-Ala-Ile-Ala-Leu/Dox, CD10 transfected CHO Clone #8", "setting": "human CD10 [7]", "value": 15, "unit": "ratio"}, {"measurement": "Ratio of IC50 Suc-β-Ala-Ile-Ala-Leu/Dox, CD10 transfected CHO clone DB4", "setting": "human CD10 [7]", "value": 14, "unit": "ratio"}, {"measurement": "Ratio of IC50 Suc-β-Ala-Ile-Ala-Leu/Dox, LnCap cells", "setting": "human CD10 [7]", "value": 3, "unit": "ratio"}, {"measurement": "difference between IC50 of Dox and of Suc-βAla-Ile-Ala-Leu-Dox, CD10 transfected CHO cells", "setting": "human CD10 [8]", "value": "~16", "unit": "fold"}]}
{"binder": "Suc-Ile-Ala-Leu-Dox", "note": "[Suc-Ile-Ala-Leu-Dox]", "values": [{"measurement": "IC50, 3H-thymidine proliferation, LnCAP cells (CD10+ PSA+)", "setting": "human CD10 [3]", "value": 170, "unit": "µM"}, {"measurement": "IC50, 3H-thymidine proliferation, 22RV1 cells (CD10- PSA+)", "setting": "[4]", "value": 14000, "unit": "µM"}]}
{"binder": "Suc-[βAla]LAL-Dox", "note": "[Suc-βAla-Leu-Ala-Leu-Dox]", "values": [{"measurement": "IC50, 3H thymidine proliferation, CD10 transfected CHO Clone #3", "setting": "human CD10 [5]", "value": 19000, "unit": "µM"}, {"measurement": "IC50, 3H thymidine proliferation, CD10 transfected CHO Clone #5", "setting": "human CD10 [5]", "value": 24000, "unit": "µM"}, {"measurement": "IC50, 3H thymidine proliferation, CD10 transfected CHO Clone #7", "setting": "human CD10 [5]", "value": 13000, "unit": "µM"}, {"measurement": "IC50, 3H thymidine proliferation, CD10 transfected CHO Clone #8", "setting": "human CD10 [5]", "value": 10000, "unit": "µM"}, {"measurement": "IC50, 3H thymidine proliferation, CD10 transfected CHO clone DB4", "setting": "human CD10 [5]", "value": 5400, "unit": "µM"}, {"measurement": "IC50, 3H thymidine proliferation, LnCap cells (CD10 positive)", "setting": "human CD10 [5]", "value": 510, "unit": "µM"}, {"measurement": "IC50, 3H thymidine proliferation, Ramos cells", "setting": "human CD10 [5]", "value": 840, "unit": "µM"}, {"measurement": "shift of IC50 on LNCaP cells treated with 100 nM of phosphoramidon", "setting": "human CD10 [8]", "value": 7, "unit": "fold"}]}
{"binder": "Suc-Leu-Ala-Gly-Dox", "note": "[Suc-Leu-Ala-Gly-Dox]", "values": [{"measurement": "IC50, proliferation of HL60 cells with supernatant of compound-treated CHO Clone 8 (CD10 Pos.)", "setting": "human CD10 [1]", "value": "> 25", "unit": "µM"}, {"measurement": "IC50, proliferation of HL60 cells with supernatant of compound-treated CHO Clone DB4 (CD10 Pos.)", "setting": "human CD10 [1]", "value": "> 25", "unit": "µM"}]}
